Reference: the supplement of paper PMC11136658

Tested on: peptide library, one residue held at a place counted from the Y acceptor
Experiment: relative phosphorylation of the sub-library (ratio to the mean residue at this position); higher = residue favoured
Procedure, shortened: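 In 384-well plates, purified recombinant kinases were incubated for 90 min with 50 μM ATP containing γ-32P-ATP and biotinylated Tyr-centred peptide libraries, each mixture fixing one residue at a single position between −5 and +5. After capture on streptavidin membranes and rinsing, peptides were quantified by phosphorimaging with ImageQuant. Per-position intensities were scaled to the sum of the 18 (Ser/Thr-free library: 16) randomized residues, then multiplied by that number.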

Sequence of TEC, construct: Full length, human (P42680 whole entry, looked up): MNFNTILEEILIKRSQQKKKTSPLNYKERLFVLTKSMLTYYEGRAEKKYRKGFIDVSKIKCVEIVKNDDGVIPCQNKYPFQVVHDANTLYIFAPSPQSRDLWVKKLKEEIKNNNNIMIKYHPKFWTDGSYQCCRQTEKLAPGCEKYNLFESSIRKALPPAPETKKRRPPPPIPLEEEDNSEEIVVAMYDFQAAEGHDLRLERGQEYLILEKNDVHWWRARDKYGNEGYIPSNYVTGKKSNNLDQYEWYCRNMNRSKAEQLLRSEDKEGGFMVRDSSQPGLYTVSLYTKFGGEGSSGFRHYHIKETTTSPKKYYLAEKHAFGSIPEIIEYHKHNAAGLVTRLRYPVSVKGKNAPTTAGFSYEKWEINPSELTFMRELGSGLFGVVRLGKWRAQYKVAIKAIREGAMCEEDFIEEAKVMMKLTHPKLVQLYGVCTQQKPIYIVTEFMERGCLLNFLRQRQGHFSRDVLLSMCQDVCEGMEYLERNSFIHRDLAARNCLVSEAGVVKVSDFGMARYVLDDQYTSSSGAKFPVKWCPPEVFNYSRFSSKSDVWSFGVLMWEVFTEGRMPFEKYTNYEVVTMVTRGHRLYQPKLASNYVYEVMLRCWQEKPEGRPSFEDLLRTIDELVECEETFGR

SRC, construct: Full length, human (from UniProt P12931)
relative phosphorylation
Conditions	at +1	at +2	at +3	at +4	at +5	at -1	at -2	at -3	at -4	at -5
A fixed	1.71	1.04	0.531	0.882	1.03	0.537	1.09	0.87	1.12	1.01
D fixed	0.651	0.589	0.472	0.783	0.787	0.691	1.57	1.93	1.48	1.36
E fixed	1.43	1.36	0.454	0.876	0.704	0.984	1.82	2.66	1.68	1.23
F fixed	0.696	1.21	3.63	1.19	1.24	0.688	0.649	0.959	1.2	1.03
G fixed	3.59	0.728	0.679	1.29	1.06	0.492	1.2	0.937	1.15	1.16
H fixed	0.667	0.556	0.874	0.983	0.891	0.504	0.917	0.842	0.875	0.871
I fixed	0.83	1.39	2.12	0.89	0.817	4.34	0.76	0.663	0.902	0.826
K fixed	0.229	0.535	0.369	0.982	1.06	0.229	0.522	0.462	0.566	0.758
L fixed	0.605	0.987	1.36	0.876	1.05	1.6	0.878	0.694	0.954	0.899
M fixed	1.09	1.09	0.913	1.19	0.87	0.764	0.657	0.765	0.91	0.901
N fixed	0.456	0.648	0.407	0.737	0.725	0.294	1.17	1.18	0.793	1.09
P fixed	0.274	0.7	0.453	0.931	1.49	1.11	1.26	0.814	1.17	1.21
Q fixed	0.764	0.802	0.416	1.08	0.851	0.378	1.11	1.01	0.941	0.976
R fixed	0.297	0.685	0.637	1.14	1.24	0.213	0.598	0.541	0.673	0.808
S fixed	1.04	1.67	0.626	0.932	1.15	0.385	1.18	0.971	0.797	0.955
T fixed	0.976	1.5	0.709	0.94	0.926	1.28	0.896	0.901	0.692	0.848
V fixed	1.14	1.39	1.5	0.919	0.947	2.86	0.834	0.664	0.784	0.82
W fixed	1.55	1.13	1.84	1.39	1.16	0.651	0.886	1.14	1.31	1.27
pThr fixed	1.52	1.76	0.528	0.686	0.645	2.28	1.83	1.46	1.3	1.37
pTyr fixed	3.88	2.03	0.798	1.32	0.829	1.27	1.55	1.66	1.97	1.46

TEC, construct: Full length, human (from UniProt P42680)
relative phosphorylation
Conditions	at +1	at +2	at +3	at +4	at +5	at -1	at -2	at -3	at -4	at -5
A fixed	1.7	0.954	0.562	0.694	0.847	0.4	1.06	0.921	1.1	0.884
D fixed	0.761	0.712	0.353	0.726	0.87	0.463	1.44	1.42	1.41	1.26
E fixed	2.13	0.838	0.301	0.674	0.934	0.454	1.82	1.65	1.51	1.06
F fixed	0.677	1.07	1.65	1.12	1.11	1.33	0.585	1.32	0.973	0.94
G fixed	0.565	0.515	0.568	0.821	0.921	0.263	1.11	0.917	1.03	1.02
H fixed	0.582	1.04	1.2	1.55	1.24	0.555	1.04	0.944	0.967	1.13
I fixed	1.21	0.776	1.75	0.789	0.637	5.08	0.736	0.746	0.857	0.79
K fixed	0.295	0.932	0.78	1.23	1.23	0.279	0.915	0.682	0.924	1.06
L fixed	0.935	0.918	1.4	0.889	0.838	2.88	0.9	0.814	0.955	0.921
M fixed	1.58	0.86	1.25	0.98	0.956	1.26	0.806	0.932	0.945	1.01
N fixed	0.466	1.2	0.692	0.896	1.01	0.433	1.19	1.25	1.01	1.21
P fixed	0.143	0.67	0.721	0.986	1.07	0.38	1.13	0.962	0.989	0.949
Q fixed	1.33	1.07	0.643	1.05	1.03	0.441	1.22	0.967	1.28	1.2
R fixed	0.413	1.66	1.32	1.61	1.36	0.274	0.882	0.773	0.891	1.15
S fixed	1.22	1.31	0.67	0.871	0.997	0.409	0.942	1.1	0.771	0.919
T fixed	1.05	1.13	0.702	0.817	0.924	0.801	0.856	0.78	0.626	0.754
V fixed	1.57	1.03	1.26	0.785	0.656	1.7	0.782	0.775	0.785	0.887
W fixed	1.38	1.31	2.18	1.51	1.37	0.596	0.589	1.05	0.981	0.856
pThr fixed	1.91	1.66	0.298	0.525	0.563	0.786	1.26	0.929	1.03	0.999
pTyr fixed	1.08	1.3	0.4	0.683	0.779	2.06	0.955	1.08	1.02	0.894
